The results in this text go back to publication PMC11527256.

What is called pKd is −log10 of the Kd, conventionally taken in molar units. The low end stands for a large Kd, the high end for a small Kd. Usually stoichiometry N stands for a count of units in the complex or per binding partner.

Assay [1] addresses K48-linked di-UB (UniProt P0CG48). The assay is described as follows: ITC.
Assay [2] concerns the target K48-linked tetra-UB (UniProt P0CG48). The assay is described as follows: ITC.
In assay [3] the target is K48-linked tri-UB (UniProt P0CG48). Put plainly: ITC.
The target in a further assay is K48-linked penta-UB (UniProt P0CG48). Put plainly: ITC.
The next assay concerns the target K63-linked di-UB (UniProt P0CG48). Put plainly: ITC. In general terms: In ITC the heat of successive injections is recorded.
A further assay addresses K63-linked penta-UB (UniProt P0CG48). The assay is described as follows: ITC.
The next assay concerns the target K63-linked tetra-UB (UniProt P0CG48). The assay is described as follows: ITC.
In the next assay the target is K63-linked tri-UB (UniProt P0CG48). Put plainly: ITC.
The target of assay [4] is K48-linked di-UB (UniProt P0CG48). Put plainly: SEC-SAXS; complexes assembled at 170 μM, 1:1, in 20 mM HEPES pH 8.0, 150 mM NaCl, 1 mM TCEP; Superdex 75 10/300 increase coupled to SAXS (ESRF BM29).
Assay [5] has as its target K48-linked tetra-UB (UniProt P0CG48). Described as above.
The target of assay [6] is K48-linked tri-UB (UniProt P0CG48). The description is as above.

pKd: −log10 of the molar value.

With “Cdu1^CA M149A/M153A variant (from UniProt B0B9A0 130-401) (enzyme)”, the pKd was 5.54 with K48-linked di-UB [1], 5.91 with K48-linked tetra-UB [2] and 5.75 with K48-linked tri-UB [3]. The dH was 1.89 kcal/mol in the assay with K48-linked di-UB [1], 10.9 kcal/mol with K48-linked tetra-UB [2] and 6.4 kcal/mol in the assay with K48-linked tri-UB [3]. For the same substance, the stoichiometry N in the assay with K48-linked di-UB [1] amounted to 0.98; with K48-linked tetra-UB [2] it was 0.95; with K48-linked tri-UB [3] it was 1.01.

In the case of “Cdu1^CA Q384A/A385R variant (from UniProt B0B9A0 130-401) (enzyme)”, in the assay with K48-linked di-UB [1], the negative-log Kd (pKd) is 5.46, the dH is 3.89 kcal/mol and the stoichiometry N turned out to be 0.96. In the assay with K48-linked tetra-UB [2], this substance had a pKd of 5.85, a dH of 7.86 kcal/mol and a stoichiometry N of 1.14. Moreover, in the assay with K48-linked tri-UB [3], the pKd is 5.78, the dH stood at 7.7 kcal/mol and the stoichiometry N is 1.04.

As for “Cdu1^CA, catalytically inactive Cdu1(130-401) with C345 mutated to Ala (from UniProt B0B9A0 130-401) (enzyme)”, the pKd is 5.59 with K48-linked di-UB [1]; 6.55 in the assay with K48-linked penta-UB; 6.51 with K48-linked tetra-UB [2]; 6.10 with K48-linked tri-UB [3]; 5.60 with K63-linked di-UB; 5.18 with K63-linked penta-UB. Moreover, the figures for the pKd with K63-linked tetra-UB and with K63-linked tri-UB were 5.35 and 5.52, respectively. Besides, the dH in the assay with K48-linked di-UB [1] stood at 3.67 kcal/mol; in the assay with K48-linked penta-UB, 10 kcal/mol; in the assay with K48-linked tetra-UB [2] it was 9.63 kcal/mol; in the assay with K48-linked tri-UB [3] it was 7.05 kcal/mol; with K63-linked di-UB it was 5.99 kcal/mol; with K63-linked penta-UB, 10.9 kcal/mol. The dH came to 9.93 kcal/mol with K63-linked tetra-UB and 7.34 kcal/mol with K63-linked tri-UB. Further, the stoichiometry N with K48-linked di-UB [1] is 1.02; in the assay with K48-linked penta-UB it was 0.99; in the assay with K48-linked tetra-UB [2] it was 0.99; with K48-linked tri-UB [3], 1.01; with K63-linked di-UB it was 0.92; with K63-linked penta-UB, 2.3. Moreover, the stoichiometry N was found to be 1.6 with K63-linked tetra-UB; 1.24 in the assay with K63-linked tri-UB; 1 with K48-linked di-UB [4]; 1 in the assay with K48-linked tetra-UB [5]; 1 with K48-linked tri-UB [6].
